According to PMC12597263:

Target: T1, recombinant human (rh) BMP2 (human) (UniProt P12643)
T1 sequence: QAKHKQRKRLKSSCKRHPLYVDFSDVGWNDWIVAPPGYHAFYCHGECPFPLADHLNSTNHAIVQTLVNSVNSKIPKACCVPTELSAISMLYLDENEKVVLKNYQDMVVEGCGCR

GREM1-mCherry uptake into HCT116 cells (integrated mCherry fluorescence per cell) from conditioned medium with 200 ng/ml BMP2 versus vehicle, overnight (16 h): 5 fold
B1: GREM1^WT-mCherry (human Gremlin1 fused to mCherry) (natural protein)
chain: KKKGSQGAIPPPDKAQHNDSEQTQSPQQPGSRNRGRGQGRGTAMPGEEVLESSQEALHVTERKYLKRDWCKTQPLKQTIHEEGCNSRTIINRFCYGQCNSFYIPRHIRKEEGSFQSCSFCKPKKFTTMMVTLNCPELQPPTKKKRVTRVKQCRCISIDLD
